This is an account of results in patent US20180312579A1 (Genentech, published 2018).

Numbering of substitutions follows the chain as printed.

In assay [1] the target is T1, human RSPO1 with C-terminal HA tag, stably expressed in 293 cells (human, UniProt Q2MKA7 21-263).
T1 construct: also called hRSPO1; RSPO1 Hi
Kind of assay: IHC, FFPE 293 cell pellet, RSPO1 Hi; - = not significant staining.

Assay [2] deals with T2, human RSPO3 with C-terminal HA tag, stably expressed in 293 cells (human, UniProt Q9BXY4 22-272).
T2 construct: Whole open reading frame expressed in HEK-293 cells (high, medium, low); FFPE pellets; also called hRSPO3; RSPO3 Hi
T2 sequence: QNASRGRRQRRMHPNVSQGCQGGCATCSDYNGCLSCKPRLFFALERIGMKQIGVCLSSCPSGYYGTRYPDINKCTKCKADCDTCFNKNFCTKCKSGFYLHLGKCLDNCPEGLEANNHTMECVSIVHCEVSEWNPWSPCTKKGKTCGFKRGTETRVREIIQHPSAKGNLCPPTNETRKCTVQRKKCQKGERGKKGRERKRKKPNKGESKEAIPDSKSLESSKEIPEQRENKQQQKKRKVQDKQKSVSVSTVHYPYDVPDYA
The assay is described as follows: IHC, FFPE 293 cell pellet, RSPO3 Hi.

The target of assay [3] is T3, human RSPO4 with C-terminal HA tag, stably expressed in 293 cells (human, UniProt Q2I0M5 20-234).
T3 construct: also called hRSPO4; RSPO4 Hi
The assay is described as follows: IHC, FFPE 293 cell pellet, RSPO4 Hi; - = not significant staining.

The target in assay [4] is T4, FLAG-tagged human RSPO3 (Genentech) (human, UniProt Q9BXY4 22-272).
T4 construct: also called hRSPO3; RSPO3 coated plates; not shown: FLAG tag
T4 sequence: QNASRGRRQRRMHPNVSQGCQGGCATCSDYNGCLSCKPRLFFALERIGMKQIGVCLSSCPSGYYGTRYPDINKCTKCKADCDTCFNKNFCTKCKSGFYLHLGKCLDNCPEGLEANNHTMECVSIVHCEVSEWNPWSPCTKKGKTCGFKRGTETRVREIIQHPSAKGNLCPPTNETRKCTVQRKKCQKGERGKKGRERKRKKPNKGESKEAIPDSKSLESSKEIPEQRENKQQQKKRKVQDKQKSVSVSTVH
The assay is described as follows: competitive binding ELISA: antibody titrated against LGR4-Fc (LGR4-ECD) binding to plate-coated hRSPO3; signal = bound LGR4-Fc, OD(450/630)/OD no antibody. How it is done:
To measure the activity of anti-RSPO antibodies in blocking the binding of LGR4 and -5 ECDs to RSPOs, MaxiSorp 384-well microwell plates (Thermo Scientific Nunc, Roskilde, Denmark) were coated with 25 ul/well of 0.5 μg/ml hRSPO2 or hRSPO3 (Genentech) in 50 mM carbonate buffer, pH 9.6, overnight at 4° C. Plates were blocked with at 80 ul/well of 0.5% bovine serum albumin, 15 parts per million Proclin 300 in phosphate buffered saline (PBS), pH 7.4, for 1 hour. Serially diluted anti-RSPO antibodies ([…] in […] serial dilution plus buffer blank) containing 0.1 μg/ml LGR4-Fc or 0.015 μg/ml LGR5-Fc in assay buffer (0.5% BSA, 0.05% polysorbate 20, 15 parts per million Proclin 300 in PBS) were added to the plates at 25 ul/well. After a 2-hour incubation, LGR4-Fc and LGR5-Fc bound to the plates were detected using peroxidase labeled goat F(ab′)2 anti-human Fc (Jackson ImmunoResearch, West Grove, Pa.). After a 1 hour incubation, the substrate 3,3′,5,5′-tetramethyl benzidine (Moss Inc., Pasadena, Md.) was added to the plates and the reaction was stopped by adding 1 M phosphoric acid. Plates were washed with PBS, pH 7.4, containing 0.05% tween 20, between steps and all the incubation steps following the coating step were performed at room temperature on an orbital shaker. Absorbance was read at 450 nm on a multiskan Ascent reader (Thermo Scientific, Hudson, N.H.).
On the technique in general: In an ELISA, binding on a coated surface is turned into a signal by an enzyme label.

For assay [5], the target named is T2, human RSPO3 with C-terminal HA tag, …. The assay is described as follows: IHC, FFPE 293 cell pellet, RSPO3 Low.
Assay [6] shares this target. The assay is described as follows: IHC, FFPE 293 cell pellet, RSPO3 Med.
In assay [7] the target is T5, recombinant human RSPO3 (human, UniProt Q9BXY4 22-272).
T5 construct: also called rhRSPO3; hRSPO3
T5 sequence: T4 sequence
The assay is described as follows: SPR, BIAcore T200, huRSPO3 immobilized, antibody injected. How it is done: The binding affinity of the antibodies in this section was determined by BIAcore™ T200 Format. Briefly, BIAcore™ research grade CMS chips were activated with 1-ethyl-3-(3-dimethylaminopropyl) carbodiimide (EDC) and N-hydroxysuccinimide (NETS) reagents according to the supplier's instructions. huRSPO3 was immobilized to achieve approximately 50 response units (RU) in each flow cell. Unreacted coupling groups were blocked with 1M ethanolamine. For kinetics measurements, Four-fold serial dilutions of variant antibody was injected in HBS-P buffer (0.01M HEPES pH7.4, 0.15M NaCl, 0.005% surfactant P20) at 25° C. with a flow rate of 30 μl/min. Association rates (kon) and dissociation rates (koff) were calculated using a 1:1 Langmuir binding model (BIAcore™ T200 Evaluation Software version 2.0). The equilibrium dissociation constant (Kd) was calculated as the ratio koff/kon.
Background: In SPR one partner is held on a chip, and binding of the other changes the refractive index at the surface.

For assay [8], the target named is T6, mouse RSPO2 (mouse, UniProt Q8BFU0 22-205, limits assumed).
T6 construct: also called mRSPO2
Kind of assay: SPR (Biacore) with the Fab; table row RSPO2, Affinity (nM) Fab. How it is done: (§1) For kinetic measurements, two-fold serial dilutions of anti-RSPO Fabs were injected in HBS-P buffer (0.01M HEPES pH 7.4, 0.15M NaCl, 0.005% surfactant P20) at 25° C. with a flow rate of 30 μl/min. Association rates (kₒₙ) and dissociation rates (koff) were calculated using a simple one-to-one Langmuir binding model (BIAcore Evaluation Software version 3.2). The equilibrium dissociation constant (KD) was calculated as the ratio koff/kₒₙ.
(§2) Surface plasmon resonance was used to confirm binding specificities and affinities to human, mouse, and cynomolgus RSPOs. Fab fragments from antibody clones were digested, purified, and then assayed using a BIAcore™-2000 instrument for binding to recombinant proteins. Antibodies fell into three groups: those specific to RSPO2, those specific to RSPO3, and those with some degree of cross-reactivity (FIG. 5).

Assay [9] concerns the target T5, recombinant human RSPO3. Kind of assay: SPR (Biacore) with the Fab; table row RSPO3, Affinity (nM) Fab. How it is done:
as §1, §2

The target in assay [10] is T7, cynomolgus RSPO3 (cynomolgus, UniProt A0A2K5UTQ7 22-273).
T7 construct: also called cynoRSPO3; rcynoRSPO3
T7 sequence: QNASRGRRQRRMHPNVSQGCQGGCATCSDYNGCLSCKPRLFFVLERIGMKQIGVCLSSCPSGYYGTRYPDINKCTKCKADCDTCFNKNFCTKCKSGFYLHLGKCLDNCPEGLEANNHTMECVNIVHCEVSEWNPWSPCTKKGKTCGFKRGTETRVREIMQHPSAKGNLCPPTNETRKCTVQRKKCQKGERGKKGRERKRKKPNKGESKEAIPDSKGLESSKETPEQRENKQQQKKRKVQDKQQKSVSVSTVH
Described as above. On the procedure:
as §1, §2

Assay [11] addresses T8, mouse RSPO3 (mouse, UniProt Q2TJ95 22-277, limits assumed).
T8 construct: also called mRSPO3; murine RSPO3
T8 sequence (looked up): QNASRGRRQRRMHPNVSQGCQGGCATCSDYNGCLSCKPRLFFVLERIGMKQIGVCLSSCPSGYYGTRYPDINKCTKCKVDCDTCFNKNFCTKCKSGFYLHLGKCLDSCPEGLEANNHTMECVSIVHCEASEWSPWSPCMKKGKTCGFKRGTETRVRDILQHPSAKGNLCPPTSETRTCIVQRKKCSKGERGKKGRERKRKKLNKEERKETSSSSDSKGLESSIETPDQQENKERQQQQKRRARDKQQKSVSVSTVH
The description is as above. On the procedure: as §1, §2

Another assay deals with cynomolgus RSPO2 (cynomolgus, UniProt G7PCH9 22-243). The assay is described as follows: cell-based or functional assay.
In assay [12] the target is T5, recombinant human RSPO3. The assay is described as follows: cell-based or functional assay.
For assay [13], the target named is T6, mouse RSPO2. Kind of assay: cell-based or functional assay.
Assay [14] deals with T7, cynomolgus RSPO3. Kind of assay: cell-based or functional assay.
The target of assay [15] is T8, mouse RSPO3. Kind of assay: cell-based or functional assay.
For another assay, the target named is recombinant human RSPO2 (human, UniProt Q6UXX9 22-243). The assay is described as follows: cell-based or functional assay.
recombinant human RSPO2, sequence (Q6UXX9 22-243): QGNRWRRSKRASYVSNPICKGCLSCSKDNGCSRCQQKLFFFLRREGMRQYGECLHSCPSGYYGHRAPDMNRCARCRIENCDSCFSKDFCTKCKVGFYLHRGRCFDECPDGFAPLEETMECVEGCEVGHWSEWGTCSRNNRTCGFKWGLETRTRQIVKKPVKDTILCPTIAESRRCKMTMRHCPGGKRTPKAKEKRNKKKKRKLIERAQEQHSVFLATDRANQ

T6 sequence (Q8BFU0 22-205 limits assumed): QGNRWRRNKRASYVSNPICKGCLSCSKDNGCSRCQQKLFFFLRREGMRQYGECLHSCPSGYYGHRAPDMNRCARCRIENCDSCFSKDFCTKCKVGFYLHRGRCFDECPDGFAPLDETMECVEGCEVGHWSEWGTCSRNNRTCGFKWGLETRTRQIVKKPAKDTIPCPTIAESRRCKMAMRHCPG
T1 sequence (Q2MKA7 other isoform, or with tags, fused parts or gaps limits assumed): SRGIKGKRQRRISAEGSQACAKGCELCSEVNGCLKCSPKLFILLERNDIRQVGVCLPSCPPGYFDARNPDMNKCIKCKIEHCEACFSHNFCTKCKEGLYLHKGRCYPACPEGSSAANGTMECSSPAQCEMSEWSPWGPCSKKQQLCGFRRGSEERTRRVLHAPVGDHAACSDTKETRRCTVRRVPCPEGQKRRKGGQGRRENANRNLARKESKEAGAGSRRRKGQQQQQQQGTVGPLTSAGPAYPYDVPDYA
T3 sequence (Q2I0M5 other isoform, or with tags, fused parts or gaps limits assumed): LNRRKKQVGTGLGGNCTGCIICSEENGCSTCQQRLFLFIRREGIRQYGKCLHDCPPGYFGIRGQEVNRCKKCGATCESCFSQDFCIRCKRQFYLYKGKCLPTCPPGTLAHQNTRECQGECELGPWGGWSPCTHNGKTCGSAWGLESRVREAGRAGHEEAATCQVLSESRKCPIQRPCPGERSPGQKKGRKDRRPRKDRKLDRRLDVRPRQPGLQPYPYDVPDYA
cynomolgus RSPO2, sequence (G7PCH9 entry or part of it): as the sequence (Q6UXX9 22-243) above, with V160A, L165P, T178A counted along it

B1: 21C2 (antibody, V domains shown)
VH: QVQLQQSGAELVRPGVSVKISCKGSGYTFTDYVIHWVKQSHAKSLEWIGVITTYYGDASYNQKFKGKATMTVDKSSSTAYMELARLTSEDSAIYYCARGAYGNSPSYWYFDVWGAGTSVTVSS
VL: DIVLTQSPASLTVSLGQRATISCRASESVDSYGNTFMHWYQQKPGQPPKLLIYLASNLESGVPARFSGSGSRTDFTLTIDPVEADDAATYYCQQNNEDPYTFGGGTKLEIK
notes: also called monoclonal antibody 21C2
As to B1, the binding result in [1] and in assay [3] was “no binding” throughout. For the same molecule, the “percentage of cells staining” value in assay [2] is 95%; in assay [5] it was 10%; in [6] it was 60%. Further, in assay [4], the “IC50 (read off the curve)” value is roughly 0.1 µg/mL.

B2: hu5D6v4.3 (Fab, V domains shown)
VH: EVQLVESGPGLVKPSETLSLTCTVSGDSITSGYWNWIRQPPGKGLEWIGYISYSGKTYQNPSLKSRITISRDTSKNQFSLKLSSVTAADTAVYYCATYYGYGGPWFAYWGQGTLVTVSS
VL: DIQMTQSPSSLSASVGDRVTITCKASQDIDSYLSWFQQKPGKAPKTLIYLTNRLVDGVPSRFSGSGSGTDYTLTISSLQPEDFATYYCLHYDEFPLTFGQGTKVEIK
notes: Humanized 5D6 variant; also called v1+T69 (LC)+(W47+I48+F78 (HC))
Usually Kd stands for the constant that tells how readily two partners part at equilibrium. For the molecule B2, in the assay with recombinant human RSPO3 [7], the Kd is 0.07 nM.

B3: Fab 5D6 (Fab, V domains shown)
VH: EVQLQESGPSLVKPSQTLSLTCSVTGDSITSGYWNWIRKFPGNKFEYMGYISYSGKTYQNPSLKSRISITRDTSKNQYHLQLNSVTTEDTATYYCATYYGYGGPWFAYWGQGTLVTVSA
VL: DIVLTQSPSSMYASLGERVTITCKASQDIDSYLSWFQQKPGKSPKTLIYLTNRLVDGVPSRFSGSGSGQDYSLTISSLEYEDMGIYYCLHYDEFPLTFGAGTKLEIK
notes: Fab expressed in E. coli for crystallography; also called 5D6 Fab
Regarding B3, the binding result in the assay with mouse RSPO2 [8] is listed as “no binding”. Further, the dissociation constant Kd with recombinant human RSPO3 [9] is 0.073 nM; with cynomolgus RSPO3 [10], 1.9 nM; with mouse RSPO3 [11] it was 3.36 nM.

B4: 4H1 (Fab, V domains shown)
VH: EVKLVESGGGFVKPGGSLKLSCAASGFTFSNFAMSWVRQSPEKRLEWVAEINNGGNYAYYQDTVTGRFTISRDNAKNTLYLEMSSLRSEDTAMYFCAREDYVNYEAYFAYWGQGTTLTVSS
VL: SIVMTQTPLSLPVSLGDQASISCRSSQSIVHSNGNTYLEWYLQKPGQSPKLLIYRISNRFSGVPDRFSGSGSGTDFTLKISRVEAEDLGVYYCFQGSHVPYTFGGGTKLEIK
notes: also called Fab of 4H1; 4H1 Fab
As to B4, in the assay with mouse RSPO2 [8], the binding result is listed as “no binding”. For the same molecule, the dissociation constant Kd in the assay with recombinant human RSPO3 [9] was found to be 9.5 nM; with cynomolgus RSPO3 [10], 6.4 nM; with mouse RSPO3 [11], 6.8 nM.

B5: 5C2 (antibody, V domains shown)
VH: EVQLQESGPGLVAPSQSLSITCTVSGFSLTSYGVHWVRQPPGKGLEWLGVIWTGGSTNYNSALMSRLSISKDNSKSQVFLKMNSLQTDDTAMYYCARVDGYYYFDYWGQGTTLTVSS
VL: DIVMTQSTSSLSASLGDRVTISCRASQDISNYLNWYQQKPDGTVKLLIYYTSRLHSGVPSRFSGSGSGTDYSLTISNLEPEDIATYFCQQGDTLPPTFGGGTKLEIK
notes: also called monoclonal antibody 5C2
As to B5, the binding result in assay [1] and in [3] was “no binding” each time. Besides, the “IC50, WNT luciferase reporter, bivalent antibody” value in the assay with cynomolgus RSPO2 was greater than 500 nM; in the assay with recombinant human RSPO3 [12], 0.65 nM; with mouse RSPO2 [13], greater than 500 nM; with cynomolgus RSPO3 [14] it was 1.3 nM; with mouse RSPO3 [15], 0.47 nM; in the assay with recombinant human RSPO2 it was greater than 500 nM. The “percentage of cells staining” value in assay [2] was greater than 95%; in assay [5], 40%; in [6] it was 60%. For the same molecule, the “IC50 (read off the curve)” value in [4] was roughly 0.1 µg/mL.

B6: 6E9 (Fab, V domains shown)
VH: QVQLKESGPGLVQPSQSLSITCTVSGFSLTSYGVHWVRQSPGKGLEWLGVIWSGGSTDYNAAFISRLSISKDNSKSQVFFKMNSLQANDTAIYYCARNDGYYYFDYWGQGTTLTVSS
VL: B5 VL with V3K, P80Q, T97A
notes: also called Fab of 6E9; 6E9 Fab
Regarding B6, the binding result in the assay with mouse RSPO2 [8] is recorded as “no binding”. The dissociation constant Kd with recombinant human RSPO3 [9] was found to be 67 nM.
